Numbered stars: 1 amine (or outer) side, 2 acyl side, 3 side chain; on linkers, the order of the positions; unused ones are H or OH. Bridge positions count the residues as written; N and C are the ends. Square brackets hold non-standard residues; d marks the D form. Ends that are not written are not given here. Bis(1,2,3triazol4ylCH2)ether = c1c(COCc2cn([*:2])nn2)nnn1[*:1]; Aha = [N-]=[N+]=NCC[C@H](N)C(=O)O
Key:
[1] = target: AlexaFluor647 tagged MDM2-GST (UniProt Q00987 1-491, AlexaFluor647 label); assay: flow cytometry on cells
[2] = target: biotinylated MDM2 truncate (residues 10-118) (UniProt Q00987 10-118, biotin (NHS-PEG4-Biotin)); assay: BLI
Sequence of biotinylated MDM2 truncate (residues 10-118) (Q00987 10-118): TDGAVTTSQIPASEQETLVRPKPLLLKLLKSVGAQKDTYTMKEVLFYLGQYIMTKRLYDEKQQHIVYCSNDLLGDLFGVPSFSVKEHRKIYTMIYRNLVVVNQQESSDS

Sequence of AlexaFluor647 tagged MDM2-GST (Q00987 whole entry, the tested form may be a part): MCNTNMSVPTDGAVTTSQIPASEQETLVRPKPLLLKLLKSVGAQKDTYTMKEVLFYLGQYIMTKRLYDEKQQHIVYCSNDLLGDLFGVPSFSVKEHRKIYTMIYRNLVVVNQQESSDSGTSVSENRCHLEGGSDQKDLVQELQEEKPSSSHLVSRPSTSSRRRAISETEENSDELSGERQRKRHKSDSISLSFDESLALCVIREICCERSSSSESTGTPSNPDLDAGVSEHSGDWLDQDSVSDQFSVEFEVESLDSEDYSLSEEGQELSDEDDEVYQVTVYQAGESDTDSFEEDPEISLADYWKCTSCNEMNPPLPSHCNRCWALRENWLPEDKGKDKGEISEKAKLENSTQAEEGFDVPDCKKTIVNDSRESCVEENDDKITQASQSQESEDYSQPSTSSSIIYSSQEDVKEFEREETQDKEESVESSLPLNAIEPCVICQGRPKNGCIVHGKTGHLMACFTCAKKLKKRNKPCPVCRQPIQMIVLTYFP

Binder | Kd [1] | Kd [2]
VLSF[Aha]DYWNLL[Aha]GS [SPD-M3-V1, displayed on the bacterial surface, non-stabilized] | 64 ± 33 nM | –
VLSF[Aha]DYWNLL[Aha]GS-NH2 [SPD-M3-V1, synthetic, non-stabilized] | – | 131 nM
GGTF[Aha]GYWADL[Aha]AF-NH2 (triazole 5-12 via Bis(1,2,3triazol4ylCH2)ether) [SPD-M3-G1, synthetic, stabilized] | – | 5.1 nM
VLSF[Aha]DYWNLL[Aha]GS-NH2 (triazole 5-12 via Bis(1,2,3triazol4ylCH2)ether) [SPD-M3-V1, synthetic, stabilized] | – | 14 nM
VLSF[Aha]DYWNLL[Aha]GS (triazole 5-12 via Bis(1,2,3triazol4ylCH2)ether) [SPD-M3-V1, displayed on the bacterial surface, stabilized] | 9.8 ± 3.4 nM | –
GGTF[Aha]GYWADL[Aha]AF-NH2 [SPD-M3-G1, synthetic, non-stabilized] | – | 21 nM
